The target of this assay is T1, ERCAT-MBP (ERECTA kinase domain fused to maltose binding protein, kinase-active) (Arabidopsis, UniProt Q42371 611-976).
T1 construct: Expressed in E. coli from pMAL-c2 and purified on amylose resin; dot-blotted on nitrocellulose
T1 sequence: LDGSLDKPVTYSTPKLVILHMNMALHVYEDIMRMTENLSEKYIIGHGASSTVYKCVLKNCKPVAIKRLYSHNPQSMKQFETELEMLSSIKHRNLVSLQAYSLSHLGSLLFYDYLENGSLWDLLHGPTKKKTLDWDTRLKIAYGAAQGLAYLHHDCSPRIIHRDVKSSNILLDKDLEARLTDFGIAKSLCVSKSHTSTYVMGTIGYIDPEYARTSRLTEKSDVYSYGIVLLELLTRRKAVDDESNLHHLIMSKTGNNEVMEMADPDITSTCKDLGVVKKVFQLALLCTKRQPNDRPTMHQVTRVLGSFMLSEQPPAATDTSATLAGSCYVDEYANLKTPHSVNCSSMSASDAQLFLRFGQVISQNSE
Put plainly: far-western dot blot with 32P-labelled GST-KID. From the text: Far-Western Analysis of the ERECTA-KAPP Interaction: For protein-protein interaction (far-western) blot analysis, the kinase domains of ERECTA and RLK5 were expressed as MBP fusions. The ERECTA kinase domain (corresponding to amino acids 611 to 977) was amplified from cDNA using the primers ERK4 (5′ […] 3′, SEQ ID NO:34) and ER3rc (5′ […] 3′, SEQ ID NO:35). The amplified fragment was digested with EcoRI and BamHI and introduced into pSP73-delta-AatII to generate pKUT503. […] The first round of PCR was performed with the primer pairs ERK4 and ERK13/K676E (5′ […] 3′, SEQ ID NO:36) and ERKI5/K676E (5′ […] 3′, SEQ ID NO:37) and ERCodeC3 (5′ […] 3′, SEQ ID NO:38). In the next round, products from both reactions were mixed and amplified with ERK4 and ERCodeC3. The amplified fragment was digested with EcoRI and BamHI and introduced into the plasmid pSP73-delta-AatII to generate pKUT536. The EcoRI-SalI fragments of both pKUT503 and pKUT536 were cloned into pMAL-c2 (New England Biolabs). The plasmids RLK5CAT-MBP, RLK5CAT(K711E)MBP, and GST-KID 134 were generous gifts from John Walker (University of Missouri, Columbia). […] Protein concentrations were determined with Bio-Rad Protein Assay Solution. […]

1 molecule from patent publication US20050223428A1 (published 2005) can be followed below.

B1: GST-KID (kinase interaction domain of Kinase-Associated Protein Phosphatase, KAPP, fused to glutathione S-transferase) (other, UniProt P46014 180-313, looked up)
chain: SWLFLEVIAGPAIGLQHAVNSTSSSKLPVKLGRVSPSDLALKDSEVSGKHAQITWNSTKFKWELVDMGSLNGTLVNSHSISHPDLGSRKWGNPVELASDDIITLGTTTKVYVRISSQNEFQIPFKIGVASDPMA
modifications: labeled with 32P
notes: Plasmid was a gift (John Walker); expressed in E. coli, purified on glutathione-Sepharose, 32P-labelled and used as the probe in the far-western dot blot; also called KAPP KID; radiolabeled KID protein; not shown: glutathione S-transferase (GST) fusion partner
Turning to B1, the binding result was “no binding (tested: One milligram blotted)”.
